Results published in US10758615B2, “Human monoclonal antibodies against orexin receptor type 1” (INSERM (INSTITUT NATIONAL DE LA SANTE ET DE LA RECHERCHE …, priority 2015, dated 2020).

Key:
[1] = system: HEK-OX1R cells expressing recombinant OX1R; assay: Apoptosis in HEK-OX1R cells (annexin V-PE binding, Guava nexin kit); format: cell-based, human
HT-29 cells = assay: Growth of tumors from xenografted human HT-29 cells in nude mice; format: in vivo; conditions: ip, 2 injections/week, Day 43
Procedure: FIG. 8: Effect of inoculation of orexin-A and C2 antibody on the growth of tumors developed by xenografted human HT-29 cells in nude mice. Colon adenocarcinoma derived cells, HT-29, were inoculated in the flank of nude mice at day 0. Mice were injected at day 1 (2 injections/week) intraperitoneally with 100 μl of orexin-A solution (1.4 μmoles of orexin-A/Kg (white circles)) or with 100 μl of C2 antibody solution (0.065 μmoles/Kg (black triangles) or 0.02 μmoles/Kg (white triangles)) or with 100 μl of PBS (black circles) for control. The inventors have tested the ability of C2 antibody to inhibit the tumor development of xenografted nude mice with the human colon adenocarcinoma cell line, HT-29. After subcutaneous injection of 1.5×10^6 HT-29 cells in mice, animals were treated by 2 intraperitoneal (ip) injection/week of Orexin-A (100 μg/injection corresponding to 1.4 μmoles of orexin-A/Kg) or two doses of C2 antibody (200 μg/injection or 50 μg/injection corresponding to 0.065 μmoles/Kg and 0.02 μmoles/Kg, respectively). Control was determined by ip injection of 100 μl of PBS. The experiment was conducted during 45 days and the tumor volume was estimated by measuring the short and long axes of developedtumors each ⅔ days.

[2] = system: CHO cells lines transfected with OX1R of rat; assay: Cross-reaction: cells transfected with rat OX1R; format: cell-based; conditions: 0.1 μM, 48 h
LoVo cells = assay: Cell growth of colon cancer cell line LoVo; format: cell-based; conditions: 0.1 μM, 48 h
Procedure: (§1) Cells were treated for 48 h with 0.1 μM of each compound and then cells were counted. Results were expressed as the percentage of untreated cell number (Control).
(§2) We have tested the ability of antibodies to inhibit the cellular growth in cancer cell lines derived from colon cancer (SW48, LoVo and HCT-116 cells) and pancreas cancer (AsPC-1 cells). […] D4 and H7 have a weak effect. […] As previously described (see above) orexins are able to induce a mitochondrial apoptosis in cancer cell lines. We test the ability of antibodies to induce apoptosis in HEK-OX1R cells and colonic cancer cell line LoVo. […] This effect was dose-dependent. Indeed when HEK-OX1R cells were treated with 0.01 μM of C2 antibody, cell apoptosis was only of 6±0.7% of total cells.

LoVo cancer cell line = assay: Apoptosis in LoVo cancer cell line; format: cell-based
From the text: as §2

[3] = system: HEK-OX1R cells expressing recombinant OX1R; assay: Cell growth of HEK-OX1R cells (cell counting); format: cell-based, human; conditions: 0.1 μM, 48 h
[4] = system: CHO cells lines transfected with OX1R of mouse; assay: Cross-reaction: cells transfected with mouse OX1R; format: cell-based; conditions: 0.1 μM, 48 h
SW48 cells = assay: Cell growth of colon cancer cell line SW48; format: cell-based; conditions: 0.1 μM, 48 h
Procedure: as §1, §2

AsPC-1 cells = assay: Cell growth of pancreas cancer cell line AsPC-1; format: cell-based; conditions: 0.1 μM, 48 h
Procedure: as §1, §2

[5] = 100 μg/injection (1.4 μmoles/Kg)
[6] = 200 μg/injection (0.065 μmoles/Kg)
[7] = low dose, 50 μg/injection (0.02 μmoles/Kg)

O=S(=O)(O)c1ccc2cc(N=Nc3cc(S(=O)(=O)O)c4cccnc4c3O)ccc2c1 [NSC-87877, reference compound]
effect of SHP-2 inhibitor on orexin-induced apoptosis ([1]; NSC-87877 50 μM): blocks orexin-induced apoptosis

Orexin-A (QPLPDCCRQKTCSCRLYELLHGAGNHAAGILTL) [orexin A, a 33 amino acid neuropeptide, native OX1R ligand, reference compound]
inhibition of tumor growth (HT-29 cells; [5]): about 65%
tumor volume (HT-29 cells; [5]): ~570±100 mm^3

B1: C2: human monoclonal anti-OX1R antibody from phage display; VH SEQ ID NO:1, VL SEQ ID NO:2 (antibody, V domains shown)
VH: EVQLVESGGSLVKPGGSLRLSCAASGFTFSNSYMNWVRQAPGKGLEWISSIYGSSRYIDYADFVKGRFTISRDNATNSLYLQMNSLRAEDTAVYYCVRSSSYYGSGMDVWGRGTLVTVSS
VL: QSVLTQPASVSGSPGQSITISCAGTSSDVGGYGSVSWYQQHPGKAPKLMIYYDSYRPSGVSNRFSGSKSGNTASLTISGLQAEDEADYYCSSNTNSSTRVFGGGTKLAVLG
modifications: Synthetic VH sequence of C2; Synthetic VL sequence of C2
apoptosis in HEK-OX1R cells, % of total cells ([1]; 0.01 μM): 6±0.7%
apoptosis in HEK-OX1R cells, % of total cells ([1]; 0.1 μM, 48 h): 16±2%
apoptosis and growth inhibition in the presence of SHP inhibitor ([1]; with NSC 87877): totally abolished
promotion of apoptosis of cells transfected with rat OX1R [2]: able to promote apotosis
inhibition of cell growth in LoVo cells (LoVo cells): inhibit the cell growth in LoVo cells similarly to OxB
apoptotic response in LoVo cancer cell line (LoVo cancer cell line; 0.01 μM): strongly reduce the apoptotic response
induction of apoptosis in LoVo cancer cell line (LoVo cancer cell line; 0.1 μM, 48 h): able to induce apoptosis
reduction of HEK-OX1R cell number ([3]; versus untreated cells): ~37±3%
inhibition of HEK-OX1R cellular growth in the presence of SHP inhibitor ([3]; with 50 μM NSC 87877): totally reversed
reduction of tumor development (HT-29 cells; [6]): about 60%
tumor volume (HT-29 cells; [6]): ~650±98 mm^3
inhibition of tumor growth (HT-29 cells; [7]): 45%
tumor volume (HT-29 cells; [7]): ~885±130 mm^3
promotion of apoptosis of cells transfected with mouse OX1R [4]: able to promote apotosis
inhibition of cell growth in SW48 cells (SW48 cells): inhibit the cell growth in SW48 cells similarly to OxB
inhibition of cell growth in AsPC-1 cells (AsPC-1 cells): cell growth inhibition similar to OxB effect
